Assay: label from the status in PepcDB records

Row | Sequence | protein production
1 | MSIEKKVGFFFIAGLVLLGVMLELGEKWNPFQKAIPYKTYLSSTTGLKLGDPVRLAGVEVGKITKIAIADSRVEVAFEVKPGTAIKADSVATIRLTNLLGGQFLGLSFGSPDAPVLPPGSAVKSRETANIDVIVDNVGDLAKDAKVLIKDLTVNQKEVFQKVSSMLDENRGNLRGAIENMNSITTKMDRGQGSLALLLNDKSLYRNTNELAASMKNVTAKIEKGEGSLGKFVNDDAFYRDAKGAVANLNDGAKDIKEIAAKINRGEGSVGKLVNDESLYNELRDASKNVGEVAKKINNGQGTLGKLVNDDTLYRDTTAAMKKLDKATEGLSDTGPISVIGSMVGTLFLEHHHHHH | not failed
2 | MKAVKSERERGSRRRHRDGDVVLPAGVVVKQERLSPEVAPPAHRRPDHSGGSPSPPTSEPARSGHRGNRARGVSRSPPKKKNKASGRRSKSPRSKRNRSPHHSTVKVKQEREDHPRRGREDRQHREPSEQEHRRARNSDRDRHRGHSHQRRTSNERPGSGQGQGRDRDTQNLQAQEEEREFYNARRREHRQRNDVGGGGSESQELVPRPGGNNKEKEVPAKEKPSFELSGALLEDTNTFRGVVIKYSEPPEARIPKKRWRLYPFKNDEVLPVMYIHRQSAYLLGRHRRIADIPIDHPSCSKQHAVFQYRLVEYTRADGTVGRRVKPYIIDLGSGNGTFLNNKRIEPQRYYELKEKDVLKFGFSSREYVLLHESSDTSEIDRKDDEDEEEEEEVSDS | failed
3 | MIELIIGAVLLSLLIYGIFIEPHLMKVRHVKIAQKQNLKIAHFTDTHFAWHTTSRRFKKFARNIANEQPDLIIFSGDLFDKVAWAKNRDWTDLLTILSELKAPLGKFAILGNHDFDDEKSSRFVEEFLEKAGFVLLKNSSVVKDNLSISGVDDWREGRPDFELEPIDATFSLLALHEPDTILDMETIKEFDLILSGHSHGGQIRIGNWRLRNKGSSSADAGLYQLNDRTKLYVNRGIGLTFLPIRFGVPPEIVYYYI | failed
4 | MKKDSTIAFTGGRILTMDSEQKYAEAVVIRGDRIAAVGGTYILKSFPDAEIRDLKNRYLLPAFIDSHNHLSSFGCLEHHHHHH | not failed
5 | MAKSQIEPGVPITLQELYPSSLFYKEGVSLRVTAMLRGYSVETAIGVIEDGGRSLKINTQNIRDVSFRVGSIYQFIGELHIEQPNNEARTGRNVDGIDMNLYRKTIELLRQFLKEEDNSNMVE | failed
6 | TEALRMEREALLAEMGVAVREDGGTVGVFSPKKTPHLVNLNEDPLMSECLLYHIKDGVTRVGQVDMDIKLTGQFIREQHCLFRSIPQPDGEVVVTLEPCEGAETYVNGKLVTEPLVLKSGNRIVMGKNHVFRFNHPEQARLE | failed
7 | MGRVLDRIEVVAEEIRGQAVQSEADCRLTDAAAGLLRDSGAIRLLQPRLYGGYEVHPREFAETVMGVAALDGASGWVTGIVGVHPWELAFADPQVQEEIWGEDNDTWMASPYAPMGVATPVDGGYVLKGRWSFSSGTDHCQWAFLGAMVGDGEGGIATPSSLHVILPRTDYQIVEDTWDVIGLRGTGSKDLIVDGAFVPGYRTLNAAKVMDGRAQKEAGRPEPLFNMPYSCMFPLGITAAVIGITEGALACHIAVQKDRVAITGQKIKEDPYVLSAIGESAAEINASRVSLIETADRFYDKVDAGKEITFEERAIGRRTQIAAAWRAVRAADEIFARAGGGALHYKTPMQRFWRDAHAGLAHAVHVPGPTNHASALTQLGGEPQGMMRAMI | not failed
8 | MTSTFNPRECKLSKQEGQNYGFFLRIEKDTEGHLVRVVEKCSPAEKAGLQDGDRVLRINGVFVDKEEHMQVVDLVRKSGNSVTLLVLDGDSYEKAVKTRVDLKELGQSQKEQGLSDNILSPVMNGGVQTWTQPRLCYLVKEGGSYGFSLKTVQGKKGVYMTDITPQGVAMRAGVLADDHLIEVNGENVEDASHEEVVEKVKKSGSRVMFLLVDKETDKRHVEQKIQFKRETASLKLLPHQPRIVEMKKGSNGYGFYLRAGSEQKGQIIKDIDSGSPAEEAGLKNNDLVVAVNGESVETLDHDSVVEMIRKGGDQTSLLVVDKETDNMYRLAHFSPFLYYQSQELPNGSVKEAPAPTPTSLEVSSPPDTTEEVDHKPKLCRLAKGENGYGFHLNAIRGLPGSFIKEVQKGGPADLAGLEDEDVIIEVNGVNVLDEPYEKVVDRIQSSGKNVTLLVCGKKAYDYFQAKKIPIVSSLADPLDTPPDSKEGIVVESNHDSHMAKERAHSTASHSSSNSEDTEM | failed

— a protein production outcome set (Wang et al. 2014)
